From publication PMC4628001, “Hybrid PET/optical imaging of integrin αVβ3 receptor expression using a ^64Cu-labeled streptavidin/biotin-based dimeric RGD peptide” (EJNMMI Research, 2015)

Molecular target: T1, integrin αVβ3 (Homo sapiens, UniProt P05106+P06756)
T1 construct: U87MG cells, which are known to express high levels of integrin αVβ3; endogenous in cells; host or cells: U87MG cells
Test: Cell integrin receptor binding, U87MG cells, ^125I-RGDyK radioligand
Details: displacement of ^125I-RGDyK, room temperature 1 h, pH 7.4 binding buffer, n = 3
Procedure: The integrin αVβ3 receptor binding study was performed using a previously reported procedure with a slight modification. ^125I-RGDyK was used as the radioligand and prepared immediately before use. […] All experiments were performed in triplicate. IC50 values were determined using GraphPad Prism software 5.

T1 sequence (P06756 31-889 limits assumed): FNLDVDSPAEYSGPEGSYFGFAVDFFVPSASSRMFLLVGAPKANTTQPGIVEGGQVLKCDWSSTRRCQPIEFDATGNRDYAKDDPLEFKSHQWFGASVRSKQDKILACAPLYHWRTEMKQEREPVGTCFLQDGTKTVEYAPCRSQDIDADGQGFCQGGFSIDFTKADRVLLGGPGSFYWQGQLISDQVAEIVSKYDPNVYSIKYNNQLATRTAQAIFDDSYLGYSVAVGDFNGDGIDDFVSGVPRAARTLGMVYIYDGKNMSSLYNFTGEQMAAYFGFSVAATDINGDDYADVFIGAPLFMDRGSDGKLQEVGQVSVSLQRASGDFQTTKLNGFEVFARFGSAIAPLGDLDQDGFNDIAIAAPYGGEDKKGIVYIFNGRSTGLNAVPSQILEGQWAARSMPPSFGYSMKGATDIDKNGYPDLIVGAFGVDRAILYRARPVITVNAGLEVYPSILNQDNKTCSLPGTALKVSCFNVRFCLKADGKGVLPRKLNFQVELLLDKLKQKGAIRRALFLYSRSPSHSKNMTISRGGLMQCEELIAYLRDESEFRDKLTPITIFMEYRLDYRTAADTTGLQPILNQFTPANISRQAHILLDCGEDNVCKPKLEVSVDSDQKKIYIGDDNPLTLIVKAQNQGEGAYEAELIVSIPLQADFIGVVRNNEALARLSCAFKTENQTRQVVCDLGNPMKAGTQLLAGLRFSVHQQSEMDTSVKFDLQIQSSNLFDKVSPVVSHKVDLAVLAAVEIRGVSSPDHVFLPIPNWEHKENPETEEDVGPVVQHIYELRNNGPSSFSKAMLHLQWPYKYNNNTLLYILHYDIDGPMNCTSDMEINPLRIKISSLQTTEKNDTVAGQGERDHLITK
T1 sequence (P06756 891-1048 partner limits assumed): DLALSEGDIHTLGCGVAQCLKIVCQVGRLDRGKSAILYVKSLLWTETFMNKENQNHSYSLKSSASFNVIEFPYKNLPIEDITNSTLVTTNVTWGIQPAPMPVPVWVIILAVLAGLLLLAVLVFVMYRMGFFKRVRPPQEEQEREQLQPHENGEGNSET
T1 sequence (P05106 27-788): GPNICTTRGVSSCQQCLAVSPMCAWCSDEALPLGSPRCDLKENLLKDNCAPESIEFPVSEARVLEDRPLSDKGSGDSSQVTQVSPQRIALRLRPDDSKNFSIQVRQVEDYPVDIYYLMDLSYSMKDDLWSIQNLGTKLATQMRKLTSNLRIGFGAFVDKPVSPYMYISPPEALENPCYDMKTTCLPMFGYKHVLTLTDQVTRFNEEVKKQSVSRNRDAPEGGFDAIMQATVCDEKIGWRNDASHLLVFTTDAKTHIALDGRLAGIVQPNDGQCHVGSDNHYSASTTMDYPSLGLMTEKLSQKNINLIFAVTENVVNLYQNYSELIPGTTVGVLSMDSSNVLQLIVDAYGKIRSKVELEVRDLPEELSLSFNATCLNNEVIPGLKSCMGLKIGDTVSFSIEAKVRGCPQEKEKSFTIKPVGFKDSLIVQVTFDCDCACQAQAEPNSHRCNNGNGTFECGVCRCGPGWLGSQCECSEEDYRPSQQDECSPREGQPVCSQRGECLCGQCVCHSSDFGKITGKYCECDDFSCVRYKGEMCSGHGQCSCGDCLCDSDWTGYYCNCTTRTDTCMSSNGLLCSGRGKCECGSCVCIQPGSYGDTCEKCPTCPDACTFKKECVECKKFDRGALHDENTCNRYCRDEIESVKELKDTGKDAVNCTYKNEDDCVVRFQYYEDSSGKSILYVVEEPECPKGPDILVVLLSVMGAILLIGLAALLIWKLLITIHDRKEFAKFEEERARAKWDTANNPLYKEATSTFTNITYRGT

Substance “DOTA-(AF)SAv/biotin-PEG-RGD2: unlabeled complex comprising DOTA-(AF)SAv and biotin-PEG-RGD2” has an IC50 of 12.1 ± 4.2 nM.
